# Entries after “also recorded” stand apart in the source; their conditions may differ.
# B1: 4-35-B2: anti-HER3 antibody clone; VH = SEQ ID NO:127, VL = SEQ ID NO:135 (antibody, V domains shown)
# VH: EIQLQQSGPELVKPGASVKVSCKASGYSFTDYNMYWVKQSHGKSLEWIGHINPYNGGTTYNQKFKGRATLTVDKSSSTAFMHLNSLTSEDSAVYFCVSLRWGAMDYWGQGTSVTVSS
# VL: QIVLTQSPALMSASPGEKVTMTCSASSSVSYMYWYQQKPRSSPKPWIYLTSNLASGVPARFSGSGSGTSYSLTISSMEAEDAATYYCQQWNSNPYTFGGGTKLEIK
# modifications: 4-35-B2 heavy chain variable region; 4-35-B2 light chain variable region
# B2: 10D1F: Anti-HER3 antibody 10D1F (VH SEQ ID NO:36, VL SEQ ID NO:83) in mIgG2a format, used for immunohistochemistry (antibody, V domains shown)
# VH: QVQLQESGPGLVKPSQTLSLTCTVSGYSITSGYSWHWIRQHPGKGLEWIGSIRYSGGTDYNPSLKSLVTISADTSKNQFSLKLSSVTAADTAVYYCARMTTAPWYPFDYWGQGTTVTVSS
# VL: DIQMTQSPSSVSASVGDRVTITCKASQIVGSNVAWYQQKPGKAPEPLIYSASYLYSGVPSRFSGSGSGTDFTLTISSLQPEDFATYYCQQYSSHPLTFGQGTKLEIK
# modifications: mouse IgG2a constant regions; 10D1_c89 heavy chain variable region; 10D1_c89 light chain variable region
# B3: 10D1: anti-HER3 antibody clone, parental mouse; VH = SEQ ID NO:24, VL = SEQ ID NO:74 (antibody, V domains shown)
# VH: DVQLQESGPDLVKPSQSLSLTCTVTGYSITSGYSWHWIRQFPGNKLEWMGSIHYSGGTNYNPSLKSRISITRDTSKNQFFLQLNSVTTEDTATYFCARMTTAPRYPFDYWGQGTTLTVSS
# VL: DIVMTQSQKFMSTSVGDRVSVTCKASQIVGSNVAWYQQKPGQSPKPLIYSASYRYSGVPDRFTASGSGTDFTLTITNVQSEDLAEYFCQQYSSHPLTFGAGTKLELK
# modifications: 10D1 heavy chain variable region; 10D1 light chain variable region
# Experiments:
# [1] = test system: HEK293 cells engineered to express HER3; assay: Antibody internalisation, pHrodo imaging, HEK293 HER3; assay type: cell-based; conditions: 120 nM, 24 hours, HEK293 overexpressing HER3
# Description: (§1) Briefly, 100,000 HEK293 cells engineered to express HER3, HCC95, N87 or OVCAR8 cells were seeded in wells of 96-well tissue culture plates and cultured overnight at 37° C. in 5% CO2. […] The cells in culture were imaged every 30 min for 24 hours, in 4 different fields of each well. The maximum signal intensity in the FITC channel of each field was quantified at 24 hours.
# OVCAR8 cells = assay: Antibody internalisation, pHrodo imaging, OVCAR8; assay type: cell-based; conditions: 120 nM, 24 hours
# Description: as §1
# mouse HER3 = target: T1, mouse HER3 (Mus musculus, UniProt Q61526); assay: ELISA cross-reactivity, mouse HER3; assay type: binding
# T1 construct: purchased Sino Biological Inc., China
# Description: (§2) ELISAs were used to determine the binding specificity of the antibodies. The antibodies were analysed for binding to human HER3 polypeptide, as well as respective mouse, rat and monkey homologues of HER3 (Sino Biological Inc., China). The antibodies were also analysed for their ability to bind to human EGFR and human HER2 (Sino Biological Inc., China).
# (§3) ELISAs were carried out according to standard protocols. Briefly, 96-well plates (Nunc, Denmark) were coated with 0.1 μg/ml of target polypeptide in phosphate-buffered saline (PBS) for 16 h at 4° C. After blocking for 1 h with 1% BSA in […] (TBS) at room temperature, the anti-HER3 antibody was serially diluted with the highest concentration being 10 μg/ml, and added to the plate, Post 1 h incubation at room temperature, plates were washed three times with TBS containing 0.05% Tween 20 (TBS-T) and were then incubated with a HRP-conjugated anti-His antibody (Life Technologies, Inc., USA) for 1 h at room temperature. After washing, plates were developed with colorimetric detection substrate 3,3′,5,5′-tetramethylbenzidine (Turbo-TMB; Pierce, USA) for 10 min. The reaction was stopped with 2M H2SO4, and OD was measured at 450 nm. […]
# rat HER3 = target: T2, rat HER3 (Rattus norvegicus, UniProt Q62799); assay: ELISA cross-reactivity, rat HER3; assay type: binding
# T2 construct: purchased Sino Biological Inc., China
# Description: as §2, §3
# cynomolgus macaque HER3 = assay: ELISA cross-reactivity, cynomolgus macaque HER3; assay type: binding
# Description: as §2, §3
# human EGFR = target: T3, human EGFR (Homo sapiens, UniProt P00533); assay: ELISA specificity, human EGFR; assay type: binding; conditions: antibody up to 10 μg/ml
# T3 construct: purchased Sino Biological Inc., China
# Description: as §2
# (§4) ELISAs were carried out according to standard protocols. Briefly, 96-well plates (Nunc, Denmark) were coated with 0.1 μg/ml of target polypeptide in phosphate-buffered saline (PBS) for 16 h at 4° C. After blocking for 1 h with 1% BSA in […] (TBS) at room temperature, the anti-HER3 antibody was serially diluted with the highest concentration being 10 μg/ml, and added to the plate, Post 1 h incubation at room temperature, plates were washed three times with TBS containing 0.05% Tween 20 (TBS-T) and were then incubated with a HRP-conjugated anti-His antibody (Life Technologies, Inc., USA) for 1 h at room temperature. […] The reaction was stopped with 2M H2SO4, and OD was measured at 450 nm.
# (§5) The antibodies were analysed for their ability to bind to human HER3 polypeptide as well as human HER1 (EGFR) and human HER2 (Sino Biological Inc., China). […]
# (§6) ELISAs were carried out according to standard protocols. […] The reaction was stopped with 2M H2SO4, and OD was measured at 450 nm.
# human HER2 = target: T4, human HER2 (Homo sapiens, UniProt P04626); assay: ELISA specificity, human HER2; assay type: binding; conditions: antibody up to 10 μg/ml
# T4 construct: purchased Sino Biological Inc., China
# Description: as §2, §4, §5, §6
# human HER3 [2] = target: T5, human HER3 (Homo sapiens, UniProt P21860); assay: Immunohistochemistry of frozen human tissue sections; design: from tissue; host or cells: arrays of frozen tissue sections; conditions: mIgG2a format
# Description: Anti-HER3 antibody 10D1F in mIgG2a format was evaluated for its ability to be used in immunohistochemistry for the detection of human HER3 protein.
# Processing of sections was performed using Bond reagents (Leica Biosystems). Arrays of commercially-available frozen tissue sections were obtained. Slides were dried in a desiccator for 10 min and then subjected to the following treatments, with water washes and/or TBS-T rinses between steps: (i) fixation by treatment with 100% acetone for 10 min at room temperature; (ii) endogenous peroxidase blocking by treatment with 3% (v/v) H2O2 for 15 min at room temperature; (iii) blocking by treatment with 10% goat serum for 30 min at room temperature, (iv) incubation with 10D1F-mIgG2a at 1:250 dilution of a 6.2 mg/ml solution overnight at 4° C., (v) incubation with HRP-polymer conjugated goat anti-mouse antibody for 30 min at room temperature, and (vi) development with Bond Mixed DAB Refine for 5 min at room temperature, followed by rinsing with deionised water and 1× Bond Wash to stop the reaction.
# Slides were then dehydrated, mounted in synthetic mounting media and scanned with high resolution.
# human HER3 [3] = target: T5, human HER3; assay: BLI competition between anti-HER3 antibodies for binding to HER3
# Description: Bio-Layer Interferometry (BLI) experiments were performed using the Octet QK384 system (ForteBio), anti-Penta-HIS (HIS1K) coated biosensor tips (ForteBio, USA) were used to capture His-tagged human HER3 (75 nM; 300 s). […] The variable region of LJM-716 antibody was cloned in the PDZ vector having human IgG1 and IgKappa Fc backbone.
# BLI experiments were performed as described in Example 3.5 with one alteration: 400 nM of competing antibodies were used. The variable regions of M-05-74 and M-08-11 antibodies were cloned in the PDZ vector having human IgG1 and IgKappa Fc backbone.
# [4] = test system: HER3-mediated signalling (pHER3, pAKT); assay: Inhibition of HER3-mediated signalling in vitro, phospho-western blot; assay type: cell-based; conditions: N87 and FaDu cells, 50 μg/ml 4 hrs, NRG 100 ng/ml
# Description: Briefly, N87 and FaDu cells were seeded in wells of a 6 well plate with 10% serum at 37° C., 5% CO2. After 16 hrs, cells were starved by culture overnight in 1% FBS cell culture medium (to reduce signalling elicited by growth factors in the serum). […] Proteins were then extracted, quantified using standard Bradford protein assay, fractionated by SDS-PAGE, and transferred to nitrocellulose membranes. The membranes were then blocked and immunoblotted with the following antibodies overnight at 4° C. anti-pHER3, anti-pAKT, pan anti-HER3, pan anti-AKT and anti-beta-actin. The blots were visualized via Bio-Rad Clarity Western ECL substrate, and bands were quantified using densiometric analysis; data were normalized to beta actin controls.
# N87, FaDu or OvCAR8 cells were seeded in wells in a 6 well plate with 10% serum overnight at 37° C. with 5% CO2. […] Antibodies tested were: 10D1F.FcA (10D1), Seribantumab (SBT), Elegemtumab (LJM), Pertuzumab (PTM), Cetuximab (CTX), and Trastuzumab (TZ).
# Before harvesting, cells were stimulated with 100 ng/ml of NRG1, Protein extracted from cell lines were quantified using standard Bradford protein assay, Protein samples (50 μg) were fractionated by SDS-PAGE and transferred to nitrocellulose membrane. […] The blots were quantified using densiometric analysis and data was normalised to beta actin. […]
# [5] = test system: PI3K/AKT/mTOR and MAPK signalling; assay: Phosphoprotein Antibody Array, FaDu cells; assay type: cell-based; conditions: 50 μg/ml 4 hrs, NRG 100 ng/ml
# Description: In further experiments the inventors investigated the intracellular signalling pathways affected by anti-HER3 antibody-mediated inhibition of HER3.
# FaDu cells were seeded in wells of a 6 well plate with 10% serum at 37° C., 5% CO2. After 16 hrs, cells were starved by culture overnight in 1% FBS cell culture medium. […] Proteins were then extracted, quantified using standard Bradford protein assay, and incubated overnight with pre-blocked Phosphoprotein Antibody Array membrane (Ray Biotech) at 4° C., The membrane was then washed with washing buffer and incubated with detection antibody cocktail for 2 hrs at room temperature, followed by washing and incubation with HRP-Conjugated anti-IgG. After 2 hrs the membrane was washed and probed using the kit detection buffer. Images were captured with Syngene Gbox imaging system, the intensity of each dot/phosphoprotein was measured and percent inhibition was calculated by comparison with intensity measured for cells treated in the same way in the absence of the antibody.
# N87 cells = assay: CCK-8 proliferation assay, N87 cells; assay type: cell-based; conditions: N87, 5 days, from 100 μg/ml
# Description: (§7) Cell proliferation was measuring using the CCK-8 proliferation assay (Dojindo, Japan) after a period of 5 days, in accordance with the manufacturers instructions, Briefly 1×CCK-8 solution was added to each well followed by incubation for 2 h at 37° C. The OD was then measured at 450 nm.
# FaDu cells = assay: CCK-8 proliferation assay, FaDu cells; assay type: cell-based; conditions: 5 days, from 100 μg/ml
# Description: as §7
# T2 sequence (Q62799 20-1339): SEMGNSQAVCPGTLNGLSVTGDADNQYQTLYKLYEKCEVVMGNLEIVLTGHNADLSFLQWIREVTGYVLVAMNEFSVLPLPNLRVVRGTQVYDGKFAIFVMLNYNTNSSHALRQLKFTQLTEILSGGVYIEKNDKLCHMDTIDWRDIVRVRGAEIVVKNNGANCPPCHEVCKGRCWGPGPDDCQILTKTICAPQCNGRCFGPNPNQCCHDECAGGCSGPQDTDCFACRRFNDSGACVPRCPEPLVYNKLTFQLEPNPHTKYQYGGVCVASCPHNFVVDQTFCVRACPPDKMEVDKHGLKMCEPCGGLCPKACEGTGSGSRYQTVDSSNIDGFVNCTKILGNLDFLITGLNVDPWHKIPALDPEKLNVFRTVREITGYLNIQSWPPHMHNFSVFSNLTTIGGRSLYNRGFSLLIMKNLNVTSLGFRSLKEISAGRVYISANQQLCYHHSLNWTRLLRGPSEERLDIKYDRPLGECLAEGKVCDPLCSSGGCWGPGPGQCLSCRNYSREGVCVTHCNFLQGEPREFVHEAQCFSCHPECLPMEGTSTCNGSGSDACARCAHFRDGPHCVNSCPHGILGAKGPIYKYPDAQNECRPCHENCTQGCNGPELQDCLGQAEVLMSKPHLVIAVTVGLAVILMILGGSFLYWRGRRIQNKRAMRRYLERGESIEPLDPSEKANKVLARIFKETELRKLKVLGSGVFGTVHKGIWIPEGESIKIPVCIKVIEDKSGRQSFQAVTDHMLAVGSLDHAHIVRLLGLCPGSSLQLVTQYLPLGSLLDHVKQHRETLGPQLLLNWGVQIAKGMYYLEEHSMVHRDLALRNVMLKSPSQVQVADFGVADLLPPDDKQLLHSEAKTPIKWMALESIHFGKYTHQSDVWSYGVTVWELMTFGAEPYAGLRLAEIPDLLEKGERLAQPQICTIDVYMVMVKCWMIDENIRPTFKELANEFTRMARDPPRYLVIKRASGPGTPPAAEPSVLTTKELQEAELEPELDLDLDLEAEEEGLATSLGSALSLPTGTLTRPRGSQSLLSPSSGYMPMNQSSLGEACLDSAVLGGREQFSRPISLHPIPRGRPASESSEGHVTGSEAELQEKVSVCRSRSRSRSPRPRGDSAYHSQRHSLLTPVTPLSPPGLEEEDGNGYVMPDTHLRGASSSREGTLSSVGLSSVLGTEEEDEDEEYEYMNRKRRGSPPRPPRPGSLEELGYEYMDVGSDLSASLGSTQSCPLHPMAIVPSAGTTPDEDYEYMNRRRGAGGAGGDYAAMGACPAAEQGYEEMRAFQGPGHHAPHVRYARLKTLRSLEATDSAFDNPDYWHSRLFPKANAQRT
# T1 sequence (Q61526 20-1339): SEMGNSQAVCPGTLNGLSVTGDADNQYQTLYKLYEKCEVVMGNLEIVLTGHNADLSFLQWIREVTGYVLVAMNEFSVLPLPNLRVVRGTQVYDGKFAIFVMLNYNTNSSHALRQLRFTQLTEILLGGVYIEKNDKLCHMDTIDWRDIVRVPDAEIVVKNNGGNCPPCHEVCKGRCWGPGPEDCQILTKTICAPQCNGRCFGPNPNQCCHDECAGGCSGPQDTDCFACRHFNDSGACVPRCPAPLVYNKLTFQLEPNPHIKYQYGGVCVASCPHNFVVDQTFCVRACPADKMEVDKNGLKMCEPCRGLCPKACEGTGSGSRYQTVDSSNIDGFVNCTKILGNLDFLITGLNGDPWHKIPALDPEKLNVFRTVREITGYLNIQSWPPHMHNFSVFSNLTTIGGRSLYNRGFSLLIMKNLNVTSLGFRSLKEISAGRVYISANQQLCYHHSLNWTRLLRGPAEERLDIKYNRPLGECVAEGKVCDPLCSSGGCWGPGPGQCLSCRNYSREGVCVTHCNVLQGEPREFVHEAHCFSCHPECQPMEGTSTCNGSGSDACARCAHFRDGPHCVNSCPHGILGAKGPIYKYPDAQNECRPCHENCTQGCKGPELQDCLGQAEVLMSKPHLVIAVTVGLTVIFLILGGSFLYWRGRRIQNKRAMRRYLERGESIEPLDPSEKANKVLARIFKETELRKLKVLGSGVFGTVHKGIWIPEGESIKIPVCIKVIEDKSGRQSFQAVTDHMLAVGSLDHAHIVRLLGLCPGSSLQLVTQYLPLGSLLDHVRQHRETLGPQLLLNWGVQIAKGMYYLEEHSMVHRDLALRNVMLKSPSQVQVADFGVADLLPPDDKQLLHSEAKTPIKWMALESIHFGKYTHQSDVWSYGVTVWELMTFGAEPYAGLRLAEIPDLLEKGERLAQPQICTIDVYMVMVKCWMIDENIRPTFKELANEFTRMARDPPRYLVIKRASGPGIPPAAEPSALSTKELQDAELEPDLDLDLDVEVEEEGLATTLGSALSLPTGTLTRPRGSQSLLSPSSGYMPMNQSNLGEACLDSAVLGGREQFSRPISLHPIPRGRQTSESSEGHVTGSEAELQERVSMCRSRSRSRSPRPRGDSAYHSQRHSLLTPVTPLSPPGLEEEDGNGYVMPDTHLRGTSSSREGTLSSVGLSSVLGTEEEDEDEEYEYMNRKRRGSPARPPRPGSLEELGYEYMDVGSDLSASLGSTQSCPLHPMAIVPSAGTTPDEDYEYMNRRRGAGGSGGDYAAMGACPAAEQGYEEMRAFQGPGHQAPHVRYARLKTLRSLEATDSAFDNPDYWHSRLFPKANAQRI
molecule,measurement,setting,value
"LJM716: anti-HER3 antibody clone LJM716 (Garner et al., Cancer Res (2013) 73: 6024-6035), also referred to as Elgemtumab [reference compound]",Internalisation,[1],significant internalization
same,Internalisation,OVCAR8 cells,Modest to moderate internalization
B1,Cross-reactivity with mouse HER3,mouse HER3,substantial cross-reactivity
same,Cross-reactivity with rat HER3,rat HER3,substantial cross-reactivity
same,Cross-reactivity with cynomolgus macaque HER3,cynomolgus macaque HER3,substantial cross-reactivity
same,Binding to human EGFR,human EGFR,bind to human HER2 and human EGFR
same,Binding to human HER2,human HER2,bind to human HER2 and human EGFR
B2,Staining of malignant and normal human tissue sections,human HER3 [2],"preferentially stained malignant human tissue sections, with low cross-reactivity to normal tissue"
B3,Cross-reactivity with mouse HER3,mouse HER3,substantial cross-reactivity
same,Cross-reactivity with rat HER3,rat HER3,substantial cross-reactivity
same,Cross-reactivity with cynomolgus macaque HER3,cynomolgus macaque HER3,substantial cross-reactivity
same,Binding to human EGFR,human EGFR,not to bind
same,Competition with MM-121 and/or LJM-716 for binding to HER3,human HER3 [3],not to compete with MM-121 and/or LJM-716 for binding to HER3; also recorded: distinct and topologically distant epitope of HER3 than MM-121 and/or LJM-716
same,Inhibition of HER3 phosphorylation and downstream signalling,[4],inhibit HER3 phosphorylation and downstream signalling
same,Inhibition of intracellular signalling pathways,[5],inhibit PI3K/AKT/mTOR and MAPK signalling
same,Inhibition of cell proliferation,N87 cells,dose-dependent inhibition of cell proliferation
same,Inhibition of cell proliferation,FaDu cells,dose-dependent inhibition of cell proliferation

# Source: patent US10662241B1, “HER3 antigen-binding molecules” (Hummingbird Bioscience Holdings Pte. Ltd., priority 2019, dated 2020)
